In patent publication US20260274984A1 (NATIONAL RESEARCH COUNCIL OF CANADA, published 2026):
Where a chain is given by its changes, count along the chain named.

T1: recombinant mouse mesothelin extracellular domain (mMSLN-ECD) (mouse, UniProt Q61468 298-600, limits assumed)
T1 construct: extracellular domain; also called mouse MSLN; mouse MSLN-ECD
T1 sequence (looked up): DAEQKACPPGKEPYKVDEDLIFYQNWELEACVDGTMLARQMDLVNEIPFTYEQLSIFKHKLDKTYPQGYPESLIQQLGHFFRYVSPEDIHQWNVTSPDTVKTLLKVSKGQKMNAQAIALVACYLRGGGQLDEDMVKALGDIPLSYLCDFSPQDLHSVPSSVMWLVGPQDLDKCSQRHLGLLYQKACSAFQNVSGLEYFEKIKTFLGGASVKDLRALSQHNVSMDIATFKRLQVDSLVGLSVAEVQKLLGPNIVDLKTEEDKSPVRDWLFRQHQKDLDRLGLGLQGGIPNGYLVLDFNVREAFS

B1: hMSLN-TP7-5 (VHH)
VHH: QVKLEESGGGLVQAGGSLRISCAASGRSISDYFMGWFRQTPGKEREFVAAISWSGGTAYYADSVKGRFTISRDNAKNTGYLQMNSLKPEDTAVYFCAARLSYDSRTSLQNSYDYNYWGQGTQVTVSS
notes: Llama VHH expressed in E. coli; biotinylated form used in the Mirrorball assay; also called VHH # 2
B2: hMSLN-TP7-56 (VHH)
VHH: QVQLVESGGGLVQAGGSLRISCVASGRDFSSHFMGWSRQAPGKEREFVAAISWSGGTTYYADSVKGRFAISRDNDKTTVYLQMNSLKPEDSAVYYCAARRTYDSRTSLRNSYDYPYWGQGTQVTVSS
modifications: C-terminal His tag and AviTag (biotinylated in the Mirrorball assay) from vector pMRO; letters not given, left off
notes: Llama VHH expressed in E. coli; biotinylated form used in the Mirrorball assay; also called VHH # 7
B3: hMSLN-TP7-18 (VHH)
VHH: EVQLVESGGRLVQAGGSLRLSCVASGRAFKWWTMGWFRQAPGKEREFVASISWSDGSTTYGDSVKGRFAISRDNNKNTVYLQMNSLTPEDTAVYYCARYGKDLSGRHSKNVQDYDYWGQGTQVTVSS
notes: Llama VHH expressed in E. coli; also called VHH # 4
B4: hMSLN-bioTP7-48 (VHH)
VHH: QVKLEESGGGLVQPGGSLRLSCTASGSIWSASGLTWYRQRPGNERELVASITTGGETTWYADSVKGRFTISISRDNGKMITYLQMNSLKPEDTAVYLCNSRSYWGQGTQVTVSS
notes: Llama VHH expressed in E. coli; also called VHH # 10
B5: hMSLN-biomTP7-41 (VHH)
VHH: QVQLVESGGGLVQPGGSLRLSCTASGIVRASGMAWYRQAPGKQRELVASITTGGETTWYADSVKGRFTISIDNAKMMLYLQMNALKPEDTAVYLCNQRSYWGQGTQVTVSS
modifications: C-terminal His tag and AviTag from vector pMRO; letters not given, left off
notes: Llama VHH expressed in E. coli; also called VHH # 9
B6: hMSLN-TP7-75A (VHH)
VHH: QVQLVESGGGLVQAGGSLSLSCAASGRTFSASAMAWFRQAPGTDREFVAAVAWGGRDTHYADSVKGRFTISMNNAKNTVVLQMNSLKPEDTAVYYCAAGQRGWSHSTSRDYDYWGQGTQVTVSS
notes: Llama VHH expressed in E. coli; also called VHH # 12
B7: hMSLN-bioTP7-53 (VHH)
VHH: QVQLVESGGGLVQPGGSLRLACAASGGIGSLSNVRWYRQGPGKEREYVAGITGQSTTYYADSVKGRFTISRDNVKNTVDLQMNSLKPEDTAVYICNVATLRNEYWGQGTQVTVSS
notes: Llama VHH expressed in E. coli; also called VHH # 11
B8: hMSLN-bioTP7-7 (VHH)
VHH: QVQLVESGGGLVQAGGSLRLSCAASGRTVSTYNMAWFRQAPGKEREIVAVINWTGGSTYYAESVKGRFTISRDNPKNTVYLQMNSLKPEDTAVYYCAATRTSWTENTYWGQGTQVTVSS
modifications: C-terminal His tag and AviTag from vector pMRO; letters not given, left off
notes: Llama VHH expressed in E. coli
B9: hMSLN-TP7-38A (VHH)
VHH: B8 VHH with Q3K, V5E, A14P, T31A, S57G
notes: Llama VHH expressed in E. coli; also called VHH # 6
B10: hMSLN-TP7-9 (VHH)
VHH: B8 VHH with Q1D, E6D, R72G, T101A
notes: Llama VHH expressed in E. coli; biotinylated form used in the Mirrorball assay; also called VHH # 3
B11: hMSLN-TP7-4 (VHH)
VHH: QVQLVGSGGGLVRAGGSLRLSCAGSGLTFGSYAMAWYRQAPGKQRELVASISSRGVTNYADSVEGRFTISRDNAKSTVYLQMNDLKPEDAAVYYCNAKGPFMLREYDYWGQGTQVTVSS
notes: Llama VHH expressed in E. coli BL21(DE3), IMAC purified, monomeric SEC fraction used for SPR; biotinylated form used in the Mirrorball assay; also called VHH # 1
B12: hMSLN-mTP7-82 (VHH)
VHH: QVQLVESGGGLVQAGGSLRLSCAASGSIRSASGMHWYRQAPGKERELVASITTSGETTWYRDSVKGRFTISINNAKMMLYLQMNSLKFEDTAVYYCNLRSYWGQGTQVTVSS
notes: as for B8
B13: hMSLN-TP7-35 (VHH)
VHH: QVQLVDSGGGLVQPGGSLRLSCTTSASTFRFFAMHWYRQAPGKERELVAVISRDGDAEYVDSVKGRFTISRDNAKNAVYLQMNSLKPEDTAVYYCHTRILSDHYWGQGTQVTVSS
modifications: C-terminal His tag and AviTag from vector pMRO; letters not given, left off
notes: Llama VHH expressed in E. coli; also called VHH # 5

molecular target: human mesothelin on MSLN-positive cells (NCI-H292, SKOV3) (human) (UniProt Q13421); test: cell-based or functional assay
Sequence (Q13421 other isoform, or with tags, fused parts or gaps limits assumed): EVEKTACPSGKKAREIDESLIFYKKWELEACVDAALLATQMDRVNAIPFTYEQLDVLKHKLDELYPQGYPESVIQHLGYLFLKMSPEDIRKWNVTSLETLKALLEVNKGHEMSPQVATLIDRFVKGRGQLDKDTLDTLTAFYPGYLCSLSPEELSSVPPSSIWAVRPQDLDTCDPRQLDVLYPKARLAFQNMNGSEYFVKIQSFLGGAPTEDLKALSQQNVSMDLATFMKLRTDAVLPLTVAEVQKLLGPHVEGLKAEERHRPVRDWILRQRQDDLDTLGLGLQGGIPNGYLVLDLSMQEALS

EC50 of CD69 staining of Jurkat cells in co-culture with MSLN+ H292 cells [nM]	Binder
1	B1

molecular target: T1, recombinant mouse mesothelin …; test: SPR, VHH over immobilized mouse MSLN-ECD
Method: For surface Plasmon resonance, as mentioned above selected VHHs were passed though size exclusion columns, Superdex 75 (GE Healthcare), respectively, in 10 mM HEPES, pH 7.4, containing 150 mM NaCl, 3 mM EDTA, and monomeric sdAb fractions were collected and protein concentrations were determined by measuring absorbance at 280 nm (A280). SPR analysis were performed with Biacore T200 instrument (GE Healthcare). All measurements were carried out at 25° C. in 10 mM HEPES, pH 7.4, containing 150 mM NaCl, 3 mM EDTA and 0.005% surfactant P20 (GE Healthcare). Approximately 500 RUs of the recombinant monomeric human and mouse MSLN-ECD (obtained after SEC purification of the MSLN-ECD) were captured on SA sensor chip (GE Healthcare) at a flow rate of 5 uL/min. Various concentration of the monomeric VHHs (20-500 nM) were injected over MSLN-ECD surface, respectively using an SA surface as a reference at a flow rate of 40 μL/min. Surfaces were generated by washing with running buffer. Data were analysed with BIAevaluation 4.1 software.
The monomeric fraction of VHHs obtained by SEC purification were used for SPR experiment where the human or mouse MSLN-ECD was immobilized onto the […] and various VHH concentration (20-500 nM) were passed over the sensor chip. […] All of the data collected fit a 1:1 binding model (Table 3A).

binding result	Kd [nM]	Binder
no binding (tested: 20-500 nM)		B1
no binding (tested: 20-500 nM)		B2
no binding (tested: 20-500 nM)		B3
no binding (tested: 20-500 nM)		B4
no binding (tested: 20-500 nM)		B5
no binding (tested: 20-500 nM)		B6
no binding (tested: 20-500 nM)		B7
	218	B8
no binding (tested: 20-500 nM)		B9
no binding (tested: 20-500 nM)		B10
	300	B11
	145	B12
no binding (tested: 20-500 nM)		B13

molecular target: recombinant human mesothelin extracellular domain, isoform 1 (hMSLN-ECD, 10xHis) (human) (UniProt Q13421); test: SPR (Biacore T200), VHH over immobilized hMSLN-ECD, 1:1 model

Kd [nM]	koff [s⁻¹]	kon [M⁻¹ s⁻¹]	Binder
57.2			B1
26.5	0.0201	757000	B2
	0.0138		B3
52	0.0305	587000	B6
0.571	0.000433	758000	B7
0.0924	0.000351	3.8e+06	B8
1.34	0.00238	1.78e+06	B10
0.225	0.000388	1.72e+06	B11
0.0579	0.000176	3.04e+06	B12

molecular target: recombinant human mesothelin extracellular domain, isoform 1 (hMSLN-ECD, 10xHis) (human) (UniProt Q13421); test: SPR (Biacore T200), VHH over immobilized hMSLN-ECD; no rate constants printed

Kd [nM]	Binder
276	B4
214	B5

molecular target: T2, human mesothelin on MSLN-positive cells (NCI-H292, SKOV3) (human, UniProt Q13421 296-598); test: Mirrorball microplate cytometry on adherent NCI-H292 (MSLN-positive) cells, 2 h; biotinylated VHH detected with streptavidin-PE; MMFI
T2 construct: whole, on cells; Endogenous expression on tumour cell lines; H1581 and Raji cells served as MSLN-negative controls; also called cell surface MSLN
T2 sequence (Q13421 other isoform, or with tags, fused parts or gaps limits assumed): as above
Method: Cells (5000 cells well-1) were seeded in Nunc® MicroWell 96-well optical bottom plates (Sigma-Aldrich) and incubated at 37° C. in a humidified atmosphere containing 5% CO₂ for 24-48 h. Each anti-MSLN biotinylated VHH was serially diluted in Live Cell Imaging Solution (LCIS; Thermo Fisher) and 50 μL of each Ab variant was added to the assay plate and incubated at 4° C. for 2 h. As positive control, anti-MF-T (human IgG1) monoclonal antibody (NRC-HHT-Montreal) was used. The wells were washed with LCIS, then Biotin-Streptavidin, R-Phycoerythrin Conjugate (SAPE) or donkey anti-Human Alexa Fluor (AF488) (at 3 ug/ml final concentration) was added to the wells and incubated at 4° C. for 1 h. The secondary Ab was removed, the cells were washed with LCIS then 50 μL of DRAQ5 nuclear stain (1 μM prepared in LCIS; Cell Signaling, Danvers, MA, USA) was added to wells and incubated for 10 min at 4° C. […] Data were analyzed using Cellista software (TTP Labtech) and GraphPad Prism 6 software. […]
Cell binding activities of the selected VHHs were examined by Mirrorball where negative-(NCI-H1581) and positive (NCI-H292)-MSLN cells were cultured in 96 well plate and binding of the biotinylated VHHs was detected by Streptaviding-PE conjugate. As positive control, a human IgG1 mAb MF-T was used which was detected by donkey anti-human […].

EC50 (read off the curve) [nM]	Binder
~3	B10
~1	B11
